To fix the notation:
B1: NTCP wild type, NTCP-FLAG and NTCP-V5-His expressed in HEK293 cells [human] / NTCP wild type, NTCP-FLAG and NTCP-V5-His expressed in HEK293 cells [human] (parent)
chain 1: MEAHNASAPFNFTLPPNFGKRPTDLALSVILVFMLFFIMLSLGCTMEFSKIKAHLWKPKGLAIALVAQYGIMPLTAFVLGKVFRLKNIEALAILVCGCSPGGNLSNVFSLAMKGDMNLSIVMTTCSTFCALGMMPLLLYIYSRGIYDGDLKDKVPYKGIVISLVLVLIPCTIGIVLKSKRPQYMRYVIKGGMIIILLCSVAVTVLSAINVGKSIMFAMTPLLIATSSLMPFIGFLLGYVLSALFCLNGRCRRTVSMETGCQNVQLCSTILNVAFPPEVIGPLFFFPLLYMIFQLGEGLLLIAIFWCYEKFKTPKDKTKMIYTAATTEETIPGALGNGTYKGEDCSPCTA
chain 2: B1 chain 1

This is an account of results in paper PMC8257933.

The assay covers variants of B1. The experiment in a line: co-IP (IP anti-FLAG agarose, western blot anti-V5, ImageJ band quantification). The note with it: with NTCP wild type, HEK293 cells co-transfected with NTCP-FLAG and NTCP-V5-His, n = 3 independent experiments, parent: 100, read off a plot.
Consider chain 1 MEAHNASAPFNFTLPPNFGKRPTDLALSVILVFMLFFIMLSLGCTMEFSKIKAHLWKPKGLAIALVAQYGIMPLTAFVLGKVFRLKNIEALAILVCGCSPGGNLSNVFSLAMKGDMNLSIVMTTCSTFCALGMMPLLLYIYSRGIYDGDLKDKVPYKGIVISLVLVLIPCTIGIVLKSKRPQYMRYVIKGGMIIILLCSVAVTVLSAINVGKSIMFAMTPLLIATSSLMPFILFLLLYVLSALFCLNGRCRRTVSMETGCQNVQLCSTILNVAFPPEVIGPLFFFPLLYMIFQLGEGLLLIAIFWCYEKFKTPKDKTKMIYTAATTEETIPGALGNGTYKGEDCSPCTA [chain 1 G233L G237L], for which the percent of parent is 130 % of control.
With chain 1 MEAHNASAPFNFTLPPNFGKRPTDLALSVILVFMLFFIMLSLGCTMEFSKIKAHLWKPKLLAILLVAQYGIMPLTAFVLGKVFRLKNIEALAILVCGCSPGGNLSNVFSLAMKGDMNLSIVMTTCSTFCALGMMPLLLYIYSRGIYDGDLKDKVPYKGIVISLVLVLIPCTIGIVLKSKRPQYMRYVIKGGMIIILLCSVAVTVLSAINVGKSIMFAMTPLLIATSSLMPFIGFLLGYVLSALFCLNGRCRRTVSMETGCQNVQLCSTILNVAFPPEVIGPLFFFPLLYMIFQLGEGLLLIAIFWCYEKFKTPKDKTKMIYTAATTEETIPGALGNGTYKGEDCSPCTA [chain 1 G60L A64L] the figure was 110 % of control; with chain 1 MEAHNASAPFNFTLPPNFGKRPTDLALSVILVFMLFFIMLSLGCTMEFSKIKAHLWKPKLLAILLVAQYGIMPLTAFVLGKVFRLKNIEALAILVCGCSPGGNLSNVFSLAMKGDMNLSIVMTTCSTFCALGMMPLLLYIYSRGIYDGDLKDKVPYKGIVISLVLVLIPCTIGIVLKSKRPQYMRYVIKGGMIIILLCSVAVTVLSAINVGKSIMFAMTPLLIATSSLMPFILFLLLYVLSALFCLNGRCRRTVSMETGCQNVQLCSTILNVAFPPEVIGPLFFFPLLYMIFQLGEGLLLIAIFWCYEKFKTPKDKTKMIYTAATTEETIPGALGNGTYKGEDCSPCTA [chain 1 G60L A64L G233L G237L], 160 % of control.
